In US20250345423A1 (IMUNEXUS THERAPEUTICS, published 2025):

T1: CD80 expressed on Raji cells (UniProt P33681 35-288)
T1 construct: whole, on cells; also called Raji cells expressing CD80; B7-1 on Raji cells
T1 sequence (looked up): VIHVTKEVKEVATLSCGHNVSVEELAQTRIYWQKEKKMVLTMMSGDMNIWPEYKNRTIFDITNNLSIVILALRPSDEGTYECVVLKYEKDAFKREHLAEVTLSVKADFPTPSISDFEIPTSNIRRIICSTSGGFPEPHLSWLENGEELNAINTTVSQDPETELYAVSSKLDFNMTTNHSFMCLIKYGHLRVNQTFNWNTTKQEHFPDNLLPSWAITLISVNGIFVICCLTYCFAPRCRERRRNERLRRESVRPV

T2: human B7-1 (CD80) protein (Acro Biosystems, B71-H5259) (human, UniProt P33681 35-242)
T2 sequence (looked up): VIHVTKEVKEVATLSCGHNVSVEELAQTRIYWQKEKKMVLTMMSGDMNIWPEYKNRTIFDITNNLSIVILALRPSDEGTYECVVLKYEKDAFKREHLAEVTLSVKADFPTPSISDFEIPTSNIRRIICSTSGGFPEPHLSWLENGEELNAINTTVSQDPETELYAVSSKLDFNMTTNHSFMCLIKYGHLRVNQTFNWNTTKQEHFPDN

T3: human recombinant Sclerostin (rhSOST, R&D systems 1406-ST-025/CF) (human, UniProt Q9BQB4 24-213)
T3 sequence (looked up): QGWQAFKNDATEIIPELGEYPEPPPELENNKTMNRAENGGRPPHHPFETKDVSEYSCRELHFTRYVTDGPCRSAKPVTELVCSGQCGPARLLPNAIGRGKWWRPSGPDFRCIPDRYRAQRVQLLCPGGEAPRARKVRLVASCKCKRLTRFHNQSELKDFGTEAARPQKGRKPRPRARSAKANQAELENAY

B1: BD_B7 (CTLA-4 binding domain directed against B7.1 (CD80)), displayed on the cell surface from the display vector (designed binder)
chain: KAMHVAQPAVVLASSRGIASFVCEYASPGKYTEVRVTVLRQADSQVTEVCAATYMTGNELTFLDDSICTGTSSGNQVNLTIQGLRAMDTGLYICKVELMYPPPYYLGIGNGTQIYVIDPEPSPDSNAGGGGSGGGGSGGGGSAEQKLISEEDLNAVGQDTQEVIVVPHSLPFKVVVISAILALVVLTIISLIILIMLWQKKPR
notes: also called CTLA-4 BD directed against B7-1
B2: BD_SOST (CTLA-4 binding domain directed against human sclerostin), displayed on the cell surface from the display vector (designed binder)
chain: KAMHVAQPAVVLASSRGIASFVCEYTVSWVDMEVRVTVLRQADSQVTEVCAATYWNGRWLTFLDDSICTGTSSGNQVNLTIQGLRAMDTGLYICKVQLDPSWGYYWQGYEGIGNGTQIYVIDPEPSPDSNAGGGGSGGGGSGGGGSAEQKLISEEDLNAVGQDTQEVIVVPHSLPFKVVVISAILALVVLTIISLIILIMLWQKKPR

Assays:
[1] = target: T1, CD80 expressed on Raji cells; assay: cell-to-cell binding: Raji cells on transfected bMSCs (summary of Example 2)
Description: The required number of Raji cells (100,000 cells for each assay well) were centrifuged and resuspended in an appropriate volume of MSCBM (100 μl/100,000 cells), and the cell suspension was added to the wells containing bMSCs. Plates were incubated for 1 h at RT before the wells were very carefully washed 3× with D-PBS. In-cell ELISA assays were carried out two days after transfection with CTLA-4 BD plasmid DNA. The cell supernatant was aspirated, cells were washed 3× with 300 μl D-PBS (137 mM NaCl, 8.1 mM Na₂HPO₄, 2.68 mM KCl, 1.47 mM KH₂PO₄, 0.9 mM CaCl₂), 0.5 mM MgCl₂), and then fixed by adding 50 μl of a formaldehyde solution (4% in PBS, for example Santa Cruz Biotechnology, Cat. No. SANTS-281692). After 15-20 minutes of incubation at RT, the solution was aspirated and cells were washed 3× with 300 μl D-PBS-T (D-PBS containing 0.05% (w/V) Tween-20). Wells were blocked by incubating with 300 μl of 5% skim milk in D-PBS-T for 1 h at RT. The blocking buffer was aspirated and wells were washed with 3×300 μl D-PBS-T before adding 50 μl of the primary antibody diluted in D-PBS-T (see Table 1 for antibodies and their respective dilutions). […] After 5-15 minutes the reaction was stopped by adding 100 μl 1 M HCl, and absorbance at a wavelength of 450 nm was measured using a micro plate reader. […]

[2] = target: T2, human B7-1 (CD80) protein (Acro …); assay: in-cell ELISA on transfected bMSCs, anti-CD80 primary antibody, versus control transfection
Description: Cells were plated on a 96-well plate at a density of 10,000 cells per well. The in-cell ELISA was performed the following day.
All in-cell ELISA experiments were carried out in 96-well microtiter plates. For assays in which the primary antibody was directed against the ligand of the CTLA-4 binding domain, the supernatant of cells expressing the CTLA-4 BD was aspirated, replaced with medium containing the ligand (rhSOST (R&D systems 1406-ST-025/CF) or B7-1/CD80 protein (Acro Biosystems, B71-H5259) at varying concentrations, and incubated for 1 h at RT. For assays in which binding of B-lymphocytes to cells expressing the CTLA-4 binding domain was to be assessed, cells from a lymphoblast-like cell line (Raji cells) were used. The required number of Raji cells (100,000 cells for each assay well) were centrifuged and resuspended in an appropriate volume of MSCBM (100 μl/100,000 cells), and the cell suspension was added to the wells containing bMSCs. Plates were incubated for 1 h at RT before the wells were very carefully washed 3× with D-PBS. In-cell ELISA assays were carried out two days after transfection with CTLA-4 BD plasmid DNA. […]

[3] = target: T3, human recombinant Sclerostin (rhSOST, …); assay: in-cell ELISA on transfected HEK293 cells, anti-SOST primary antibody, versus mock transfection
Description: The remainder of the protocol was identical for both cell types. One day before transfection, cells were plated on 96-well microtiter plates that had previously been coated with Poly-D-Lysine (PDL, Gibco, Cat. No. A38904-01) according to the manufacturer's instructions. The ideal cell density for subsequent transfection and in-cell ELISA was empirically determined to be 10,000 cells per well at time of seeding. The day after plating, cells were transfected using the Lipofectamine 3000 transfection kit (Invitrogen, Cat. No. L3000-008). The ideal amount of DNA and Lipofectamine per well was empirically determined to be 100 ng (HEK cells) or 200 ng (CHO cells) of DNA and 0.15 μl of Lipofectamine 3000. Transfections were performed according to the manufacturer's instructions.
All in-cell ELISA experiments were carried out in 96-well microtiter plates. […]

| Binder | binding result [1] | binding result [2] | binding result [3] |
| --- | --- | --- | --- |
| B1 | binds | binds |  |
| B2 |  |  | binds |
